We go through 4 molecules from patent publication US20250381289A1 (Genmab, published 2025).

Sequences and labels used below:
B1: Nova-5097 (antibody, V domains shown)
VH: QVQLVQSGAEVKKPGSSVKVSCKASGGTFSSYAISWVRQAPGQGLEWMGGIDPFGTANYAQKFQGRVTITADESTSTAYMELSSLRSEDTAVYYCARVYQDVWGQGTLVTVSS
VL: DIVMTQSPDSLAVSLGERATINCRSSQSILYGINNNFLGWYQQKPGQPPKLLIYWASTRESGVPDRFSGSGSGTDFTLTISSLQAEDVAVYYCQQYAFGWTFGQGTKVEIK
notes: Parent cMET mAb
B2: Nova-5098 (antibody, V domains shown)
VH: QVQLVQSGAEVKKPGSSVKVSCKASGGTFSSYAISWVRQAPGQGLEWMGGIDPFGTANYAQKFQGRVTITADESTSTAYMELSSLRSEDTAVYYCARVYQDVWGQGTLVTVSS
VL: DIVMTQSPDSLAVSLGERATINCRSSQSILYGINNNFLGWYQQKPGQPPKLLIYWASTRESGVPDRFSGSGSGTDFTLTISSLQAEDVAVYYCLQYSDEPWTFGQGTKVEIK
notes: Parent cMET mAb
B3: Nova-5185 (antibody, V domains shown)
VH: QVQLVQSGAEVKKPGSSVKVSCKASGGTFSSYAISWVRQAPGQGLEWMGGIDPIMGTEYAQKFQGRVTITADESTSTAYMELSSLRSEDTAVYYCARVYQDVWGQGTLVTVSS
VL: DIVMTQSPDSLAVSLGERATINCRSSQSILYGINNNFLGWYQQKPGQPPKLLIYWASTRESGVPDRFSGSGSGTDFTLTISSLQAEDVAVYYCQQYAYEPNTFGQGTKVEIK
notes: Parent cMET mAb
B4: ABF-46 (antibody, V domains shown)
VH: EVKLVESGGGLVQPGGSLRLSCATSGFTFTDYYMSWVRQPPGKALEWLGFIRNKANGYTTEYSASVKGRFTISRDNSQSILYLQMDTLRAEDSATYYCARDNWFAYWGQGTLVTVSA
VL: DILMTQSPSSLTVSAGEKVTMSCKSSQSLLASGNQNNYLAWHQQKPGRSPKMLIIWASTRVSGVPDRFIGSGSGTDFTLTINSVQAEDLAVYYCQQSYSAPLTFGAGTKLELK

The target in this assay is T1, cMET on EGFR and cMET co-expressed tumor cell lines (UniProt P08581 25-1390, limits assumed).
T1 construct: whole, on cells
T1 sequence (P08581 25-1390 limits assumed): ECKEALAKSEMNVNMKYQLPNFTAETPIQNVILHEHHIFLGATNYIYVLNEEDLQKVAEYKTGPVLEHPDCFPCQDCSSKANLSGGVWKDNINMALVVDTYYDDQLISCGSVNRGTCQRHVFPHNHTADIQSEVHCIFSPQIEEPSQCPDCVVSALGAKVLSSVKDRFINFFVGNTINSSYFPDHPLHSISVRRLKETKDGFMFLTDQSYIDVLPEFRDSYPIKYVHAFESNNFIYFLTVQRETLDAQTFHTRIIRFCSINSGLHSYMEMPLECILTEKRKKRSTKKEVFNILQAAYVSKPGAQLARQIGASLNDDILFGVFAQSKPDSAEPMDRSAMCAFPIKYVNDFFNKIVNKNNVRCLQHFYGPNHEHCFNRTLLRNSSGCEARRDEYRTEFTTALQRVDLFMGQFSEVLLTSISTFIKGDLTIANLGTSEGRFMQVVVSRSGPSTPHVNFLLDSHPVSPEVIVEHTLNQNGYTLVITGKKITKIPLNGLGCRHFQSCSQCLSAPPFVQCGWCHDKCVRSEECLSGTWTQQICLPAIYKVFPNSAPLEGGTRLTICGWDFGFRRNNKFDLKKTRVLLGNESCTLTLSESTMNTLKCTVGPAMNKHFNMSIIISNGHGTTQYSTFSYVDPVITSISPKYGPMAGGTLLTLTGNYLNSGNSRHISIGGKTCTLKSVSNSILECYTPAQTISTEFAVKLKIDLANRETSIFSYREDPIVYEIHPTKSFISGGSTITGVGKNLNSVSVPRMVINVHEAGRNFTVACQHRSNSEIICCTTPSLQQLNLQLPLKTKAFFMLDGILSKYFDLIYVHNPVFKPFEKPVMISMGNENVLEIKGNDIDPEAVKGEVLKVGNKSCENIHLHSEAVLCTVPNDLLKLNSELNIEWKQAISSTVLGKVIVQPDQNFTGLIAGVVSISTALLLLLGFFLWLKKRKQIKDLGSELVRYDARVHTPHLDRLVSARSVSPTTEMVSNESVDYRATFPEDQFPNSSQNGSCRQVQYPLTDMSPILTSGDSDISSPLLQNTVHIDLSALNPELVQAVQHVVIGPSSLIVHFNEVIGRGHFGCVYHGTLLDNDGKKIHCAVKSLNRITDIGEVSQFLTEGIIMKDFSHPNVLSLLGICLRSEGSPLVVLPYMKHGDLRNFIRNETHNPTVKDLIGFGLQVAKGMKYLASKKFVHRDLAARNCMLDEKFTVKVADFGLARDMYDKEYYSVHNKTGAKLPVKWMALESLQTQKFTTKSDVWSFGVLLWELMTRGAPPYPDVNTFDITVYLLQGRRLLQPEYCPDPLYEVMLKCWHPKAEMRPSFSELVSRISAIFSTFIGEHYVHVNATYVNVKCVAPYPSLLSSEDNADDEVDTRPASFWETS
Briefly: flow cytometry, MKN-45 cells. In general terms: Flow cytometry measures light scatter and fluorescence of single cells or particles in a stream.
As for B1, the binding result is listed as “binds”.

As for B2, the binding result is listed as “binds”.

Turning to B3, the binding result is “binds”.

As for B4, the binding result is “binds”.
